Laboratory results as given in patent publication US20250051465A1 (published 2025).

T1: human LEPR extracellular domain expressed with a C-terminal mouse IgG2a Fc tag (hLEPR.mFc) (human)
T1 construct: also called dimeric human LEPR
T1 chain: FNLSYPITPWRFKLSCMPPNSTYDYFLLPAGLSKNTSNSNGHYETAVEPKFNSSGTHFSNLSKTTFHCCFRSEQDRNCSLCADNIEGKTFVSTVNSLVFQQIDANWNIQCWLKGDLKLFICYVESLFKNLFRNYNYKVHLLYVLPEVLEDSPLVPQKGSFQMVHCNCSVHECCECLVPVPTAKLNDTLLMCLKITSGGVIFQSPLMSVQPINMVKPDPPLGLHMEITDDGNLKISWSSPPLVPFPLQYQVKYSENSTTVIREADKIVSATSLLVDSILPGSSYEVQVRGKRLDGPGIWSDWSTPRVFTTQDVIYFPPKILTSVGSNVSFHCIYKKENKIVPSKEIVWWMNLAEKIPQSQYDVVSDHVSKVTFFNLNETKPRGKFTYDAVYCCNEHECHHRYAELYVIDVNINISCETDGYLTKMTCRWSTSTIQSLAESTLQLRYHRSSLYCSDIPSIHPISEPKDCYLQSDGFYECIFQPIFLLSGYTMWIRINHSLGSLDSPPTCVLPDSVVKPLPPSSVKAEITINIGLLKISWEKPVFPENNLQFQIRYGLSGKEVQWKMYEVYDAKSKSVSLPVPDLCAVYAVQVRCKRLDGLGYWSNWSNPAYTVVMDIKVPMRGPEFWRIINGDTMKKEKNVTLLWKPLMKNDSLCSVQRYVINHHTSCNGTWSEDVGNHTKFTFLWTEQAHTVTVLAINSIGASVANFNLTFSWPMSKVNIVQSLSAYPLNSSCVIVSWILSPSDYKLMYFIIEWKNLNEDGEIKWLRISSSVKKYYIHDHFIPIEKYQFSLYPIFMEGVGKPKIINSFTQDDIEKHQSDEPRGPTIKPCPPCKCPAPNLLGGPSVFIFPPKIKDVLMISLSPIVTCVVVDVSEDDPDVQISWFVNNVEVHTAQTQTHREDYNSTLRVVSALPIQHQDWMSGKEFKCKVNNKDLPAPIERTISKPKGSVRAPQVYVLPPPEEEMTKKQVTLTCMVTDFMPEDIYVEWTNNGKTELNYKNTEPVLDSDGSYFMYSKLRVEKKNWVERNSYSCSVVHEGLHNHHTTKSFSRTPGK


Assays:
[1] = molecular target: T2, human LEPR extracellular domain expressed with a C-terminal myc-myc-hexahistidine tag (hLEPR.mmh) (human, UniProt P48357 22-839); assay: SPR, captured mAb, 25C
T2 construct: also called human LEPR-MMH; monomeric human LEPR
Experimental: (§1) Equilibrium dissociation constants (KD values) for LEPR binding to purified anti-LEPR monoclonal antibodies were determined using a real-time surface plasmon resonance biosensor using a Biacore 4000 instrument. All binding studies were performed in 10 mM HEPES, 150 mM NaCl, 3 mM EDTA, and 0.05% v/v Surfactant Tween-20, pH 7.4 (HBS-ET) running buffer at 25° C. and 37° C. The Biacore sensor surface was first derivatized by amine coupling with a monoclonal mouse anti-human Fc antibody (GE, #BR-1008-39) to capture anti-LEPR monoclonal antibodies. […] Kinetic association (kₐ) and dissociation (kd) rate constants were determined by fitting the real-time binding sensorgrams to a 1:1 binding model with mass transport limitation using Scrubber 2.0c curve-fitting software. Binding dissociation equilibrium constants (KD) and dissociative half-lives (t½) were calculated from the kinetic rate constants as: […]

[2] = molecular target: T3, Macaca fascicularis LEPR extracellular domain expressed with a C-terminal myc-myc-hexahistidine tag … (Macaca fascicularis, UniProt Q9MYL0 22-837 (rhesus entry)); assay: SPR, captured mAb, 25C
T3 construct: also called mfLEP.MMH
Experimental: as §1

[3] = molecular target: T1, human LEPR extracellular domain …; assay: SPR, captured mAb, 25C
Experimental: as §1

[4] = molecular target: T4, extracellular domain portion of LEPR protein expressed with a C-terminal human Fc tag (hLEPR.hFc) (human); assay: blocking ELISA: 10 nM hLEPR.hFc to coated hLeptin, 500 nM Ab
T4 construct: also called dimeric human LEPR
Experimental: These antibody-protein or protein-protein complexes were then incubated for 1.5 hour at room temperature (RT). […] Samples were developed with a TMB solution (BD Biosciences, #555214; substrate A and B mixed at 1:1 ratio as per manufacturer's instructions) to produce a colorimetric reaction and then neutralized with 1M sulfuric acid before measuring absorbance at 450 nm on a Victor X5 plate reader.
Data analysis was performed using a sigmoidal dose-response model within Prism™ software (GraphPad). […] In the calculation, binding signal of 10 nM of hLEPR.hFc without the presence of the antibody was referenced as 100% binding or 0% blocking; and the baseline signal of buffer alone without the presence of hLEPR.hFc was referenced as 0% binding or 100% blocking.

[5] = molecular target: T2, human LEPR extracellular domain …; assay: Luminex, myc-captured full length extracellular domain
Experimental: Aliquots of microspheres with immobilized anti-myc monoclonal antibodies, prepared as described above, were added individually to 1 mL of the each of these protein supernatants. The microspheres were gently mixed, incubated for two hours at 25° C., washed twice with 1 mL of DBPS, centrifuged to remove the supernatant and finally resuspended in 1 mL of DPBS buffer. Forty-eight μL of anti-myc IgG coupled microspheres from individual reactions with full length human LEPR and with each of the human LEPR domain proteins were withdrawn and mixed together in 3.6 mL of PBS+20 mg/mL BSA+0.05% sodium azide (blocking buffer).
From this mixed pool, 75 μL of microspheres were plated per well on a 96 well filter plate (Millipore, Cat. No: MSBVN1250) and mixed with 25 μL of individual anti-human LEPR monoclonal antibodies (0.5 or 5 µg/mL), incubated for two hours at 25° C. and then washed twice with 200 μL of DPBS with 0.05% Tween 20 (washing buffer). […] After 30 minutes, the samples were washed twice with 200 μL of washing buffer and resuspended in 150 μL of wash buffer. The Median Fluorescence intensity (MFI) of the microspheres was measured in a Luminex Analyzer.

Binder | 100 nM hLEPR-MMH Bound (RU) [1] | Kd [1] | koff [1] | kon [1] | t½ [1] | 100 nM mfLEP.MMH Bound (RU) [2] | Kd [2] | koff [2] | kon [2] | t½ [2] | 100 nM hLEPR-mFc Bound (RU) [3] | Kd [3] | koff [3] | kon [3] | t½ [3] | % blockade [4] | MFI [5]
H4H18445P2 (antibody, human IgG4, V domains shown, Fully human antibody with human IgG4 Fc (H4H prefix)) VH: QVQLQESGPGLVKPSQTLSLTCTVSGGSISSGGDYWSWIRQLPGKGLEWIGYIYYSGSAYYNPSLKSRGTISIDTSKNQFSLKLTSVTAADTAVYFCVKLRFLEWFLGGWFGPWGQGTLVTVSS VL: not shown | 45 RU | 108 nM | 0.00478 s⁻¹ | 44200 M⁻¹ s⁻¹ | 2.4 min | 58 RU | 82.4 nM | 0.00486 s⁻¹ | 59000 M⁻¹ s⁻¹ | 2.4 min | 76 RU | 4.03 nM | 0.000492 s⁻¹ | 122000 M⁻¹ s⁻¹ | 23 min | 28% | 6570 MFI
H4H18449P2 (antibody, human IgG4, V domains shown, Fully human antibody with human IgG4 Fc (H4H prefix)) VH: EVQLVESGGGLVQPGGSLRLSCVASGFTFNKYDMHWVRQTTGKGLEWVSGIDTDGDTYYPGSVKGRFTISRENAENSLYLQMNGLRVGDTAVYYCARWPWSGFYGAFDIWGQGTMVTVSS VL: not shown | 54 RU | 8.08 nM | 0.000235 s⁻¹ | 29100 M⁻¹ s⁻¹ | 49 min |  |  |  |  |  | 116 RU | 0.964 nM | 6.82e-05 s⁻¹ | 70500 M⁻¹ s⁻¹ | 169 min | 8% | 7980 MFI
H4H18438P2 (antibody, human IgG4, V domains shown, Fully human antibody with human IgG4 Fc (H4H prefix)) VH: QVQLVESGGGVVQPGRSLRLSCAASGFSFNTYGMHWVRQAPGKGLEWVTIIWYDGSIKYYADSVKGRFTISRDNSKNTLYLQMNSLRAEDTAVYYCARGGYSGYLYFDYWGQGTLVTVSS VL: not shown | 22 RU | 75.4 nM | 0.00226 s⁻¹ | 30000 M⁻¹ s⁻¹ | 5.1 min |  |  |  |  |  | 51 RU | 4.7 nM | 0.000244 s⁻¹ | 51900 M⁻¹ s⁻¹ | 47 min | 15% | 6250 MFI
H4H18417P2 (antibody, human IgG4, V domains shown, Fully human antibody with human IgG4 Fc (H4H prefix)) VH: QVQLVESGGGVVQPGRSLRLSCAASGFTFSTYGMHWVRQAPGKGLEWVSVISYDESNKYYADSVKGRFTISRDNSKNALYLQMNSLRNEDTAVYYCARDRPFGLVTGWFDPWGQGTLVTVSS VL: not shown | 28 RU | 129 nM | 0.0079 s⁻¹ | 61400 M⁻¹ s⁻¹ | 1.5 min | 33 RU | 139 nM | 0.0123 s⁻¹ | 88300 M⁻¹ s⁻¹ | 0.9 min | 90 RU | 4.04 nM | 0.000563 s⁻¹ | 140000 M⁻¹ s⁻¹ | 21 min | 16% | 4890 MFI
H4H16650P2 (antibody, human IgG4, V domains shown, Fully human antibody with human IgG4 Fc (H4H prefix)) VH: QVQLVESGGGVVQPGKSLRLSCVASGFTFSSDAMYWVRQAPGKGLEWVAVIYYDGNYQYYEDSVKGRFTISRDNSQNTLDLQMNSLRVDDTAVYFCARLNWDYWYLDLWGRGTLVTVSS VL: not shown | 51 RU | 7.93 nM | 0.000223 s⁻¹ | 28100 M⁻¹ s⁻¹ | 52 min | 93 RU | 2.27 nM | 0.000137 s⁻¹ | 60200 M⁻¹ s⁻¹ | 84 min | 102 RU | 0.785 nM | 8.32e-05 s⁻¹ | 106000 M⁻¹ s⁻¹ | 139 min | -7% | 7600 MFI
H4H16679P2 (antibody, human IgG4, V domains shown, Fully human antibody with human IgG4 Fc (H4H prefix)) VH: QVQLVESGGGVVQPGRSLRLSCTASGFTFSSYAMYWVRQAPGKGLEWVSVIYYDGSYKYYADSVKGRFTISRDNSKNTLYLQMDSLRAEDTAVYYCASYNWNYWYFDFWGRGTLVTVSS VL: not shown | 39 RU | 10.5 nM | 0.000246 s⁻¹ | 23400 M⁻¹ s⁻¹ | 47 min | 66 RU | 3.22 nM | 0.000141 s⁻¹ | 43700 M⁻¹ s⁻¹ | 82 min | 78 RU | 1.66 nM | 9.68e-05 s⁻¹ | 58400 M⁻¹ s⁻¹ | 119 min | 7% | 7510 MFI
H4H17321P2 (antibody, human IgG4, V domains shown, Fully human antibody with human IgG4 Fc (H4H prefix)) VH: QVQLVESGGGVVQPGRSLRLSCEASGFSSSDNAMYWVRQAPGKGLEWVSVIYHDGSYKYYEDSVKGRFTIARDNSKNTLYLQMNSLRAEDTAVYYCARYNWNHWYFDVWGRGTLVTVSS VL: not shown | 32 RU | 8.31 nM | 0.000196 s⁻¹ | 23600 M⁻¹ s⁻¹ | 59 min | 75 RU | 4.07 nM | 0.000133 s⁻¹ | 32600 M⁻¹ s⁻¹ | 87 min | 65 RU | 2.18 nM | 8.93e-05 s⁻¹ | 41000 M⁻¹ s⁻¹ | 129 min | 6% | 4700 MFI
H4H17319P2 (antibody, human IgG4, V domains shown, Fully human antibody with human IgG4 Fc (H4H prefix)) VH: QVQLVESGGSVVQPGRSLRLSCAASGFTFSTYAMYWVRQTPGKGLEWVAVLYSDGSNKYYIDSVKGRFTISRDTSTNTLYLQMSSLRADDSALYYCARLNWDYWYFDLWGRGTLVTVSS VL: not shown | 36 RU | 20.3 nM | 0.000529 s⁻¹ | 26100 M⁻¹ s⁻¹ | 22 min | 83 RU | 11.6 nM | 0.000463 s⁻¹ | 40000 M⁻¹ s⁻¹ | 25 min | 69 RU | 3.45 nM | 0.000164 s⁻¹ | 47700 M⁻¹ s⁻¹ | 70 min | 9% | 3300 MFI
